Experimental data as given in patent US20230151073A1, “FIBRILLATION RESISTANT CALCITONIN PEPTIDES AND USES THEREOF” (Purdue Research Foundation, priority 2020, published 2023).

Key:
[1] = Fibrillation kinetics by turbidity measurement (UV absorbance at 340 nm); assay type: physicochemical; conditions: 100 μM peptide, 731 cpm
Experimental: Fibrillation kinetics of hCT, rhCT and phCT was followed by measuring the increase in solution turbidity due to formation of soluble oligomeric species and insoluble fibrils. […] At each time point, six replicate measurements were performed for each sample. Fibrillation was carried out for 12 or 24 h at 25° C. with continuous shaking at 731 cpm. Solution turbidity was measured by UV absorbance at 340 nm at 10 or 15-min read intervals. The turbidity data was fitted to the Boltzmann sigmoidal function (Eq. 1) and analyzed as described above.

[2] = Secondary structure change during fibrillation by CD spectroscopy; assay type: physicochemical; conditions: 0 to 1440 min, 100 μM peptide, pH 7.4, 25° C., 731 cpm
Experimental: Changes in the secondary structure of hCT and phCT were monitored by CD spectroscopy using a Jasco J-815 spectrometer (JASCO Analytical Instruments, Easton, Md.). […] At predetermined time intervals, samples were withdrawn for CD analysis. CD spectra were recorded in a quartz cuvette with 1 mm pathlength, scanned from 190 nm to 260 nm in the far UV range, at a scan speed of 50 nm/min at 20° C. Each spectrum was reported as an average of three scans.

[3] = Fibrillation kinetics by Thioflavin-T (ThioT) fluorescence measurement; assay type: physicochemical; conditions: 100 μM peptide
Experimental: The fibrillation kinetics of hCT, rhCT and phCT was monitored by measuring the increase in fluorescence intensity upon thioflavin T (ThioT) binding to peptide fibrils. The ThioT stock solution (2.5 mM) was prepared in di-water and diluted 10-fold with buffer to give a working solution (250 μM). […] The peptide solution was quickly transferred to a 96-well microtiter plate and placed in a Synergy Neo2 Multi-Detection microplate reader (BioTek Instruments, Winooski, Vt.). 5 μL of ThioT working solution (250 μM) was added to 245 μL of peptide solution in each well to give a final ThioT concentration of 5 μM per well. At each time point, six replicate measurements were performed for each sample. Fibrillation was carried out for 12 or 24 h at 25° C. with continuous shaking at 731 cpm. The fluorescence intensity of ThioT was bottom-read at an interval of 10 or 15 min, at excitation and emission wavelengths of 440 nm and 482 nm, respectively.
The ThioT fluorescence data were fitted to the Boltzmann sigmoidal function as given below, using GraphPad Prism version 7.03 (GraphPad Software, La Jolla, Calif.).
where A1 is the minimum signal, A2 is the maximum signal, xo is the time at which the change in signal is 50% (t50) and dx′ is the slope of growth phase.^1 The lag time was determined either by sigmoidal fit to the fibrillation kinetics curve or using onset point determination. In sigmoidal fits, the lag time was determined as xo−2 dx′ using parameters obtained from nonlinear fit of the data to Eq. 1. […] In cases where sigmoid curve fitting could not be achieved, the t50 was estimated from the raw data as the time when the signal intensity reached half of the observed maximum value.

[4] = Visual inspection of 96-well plates after fibrillation; assay type: physicochemical; conditions: after fibrillation in 96-well plates, 24 h
[5] = 20 mM sodium phosphate buffer pH 7.4, 25° C., n=6, mean±SD
[6] = after 360 min of fibrillation time
[7] = after 1440 min of fibrillation, pepsin digestion
[8] = 20 mM sodium phosphate buffer pH 7.4, 25° C., continuous shaking at 731 cpm, n=6, mean±SD

## human calcitonin [hCT]
[1]; [5]
  lag time of fibrillation, turbidity: 198 ± 20 min
  t50 of fibrillation, turbidity: 257 ± 15 min
[1]; pH 7.4, 25° C.
  change in turbidity signal: An increase in solution turbidity was also observed
[2]
  change of CD signal during fibrillation: complete loss in signal
[6]
  deuterium incorporation, fragment 1-8: 16%
  deuterium incorporation, fragment 1-11: 13%
  deuterium incorporation, fragment 12-19: 22%
After 1440 min of fibrillation
  percent deuterium uptake, intact level: 28%
[7]
  deuterium uptake, fragment 20-32: 51%
  deuterium uptake, fragment 26-32: 54%
Fibrillation time t=0 min
  % D (percent deuterium uptake), intact level, Peak II: 68%
Start of fibrillation
  deuterium uptake, C-terminal fragments 20-32 and 26-32, initial value: ~60%
[3]; [8]
  lag time of fibrillation, ThioT fluorescence: 172 ± 15 min
  t50 of fibrillation, ThioT fluorescence: 236 ± 8 min
[3]; 20 mM sodium phosphate buffer pH 7.4, 25° C., continuous shaking at 731 cpm, n=6, mean±SD, listed as native hCT
  lag time of fibrillation, ThioT fluorescence: 172 ± 15 min
[3]; pH 7.4, 25° C., 731 cpm
  change in ThioT fluorescence with time: an increase in ThioT fluorescence was observed
[4]
  appearance on visual inspection: solid dense deposits
